Where a SMILES comes first, the peptide text is derived from it.
Assays:
HPAFII cells = test: Cell uptake of PAPTPL-I-DA7R (HPLC/UV); type: cell-based, human; settings: 5 µM, 15 min, 37 °C, DMEM without Phenol Red and serum, nmoles/mg total protein, n ≥ 9
Method: HPAFII and Pan02 cells were seeded in 6-well plates at a density of 300,000 and 150,000 cells/well, respectively, and grown for 48 h. They were then washed twice with PBS and incubated for 15 min at 37 °C with a solution of 5 µM PAPTPL-I-DA7R in DMEM without Phenol Red and serum. At the end of the incubation, cells were washed twice, 100 µL of PBS were added, and finally the cells were scraped and collected. A volume of 100 µL of CH3CN + 0.1%TFA was added, and the mixture was vortexed and sonicated for 5 min. Samples were finally centrifuged for 5 min at 12,000× g, and the supernatant was collected and the amount of PAPTPL-I-DA7R was quantified by HPLC/UV, as described in Section 2.5 (blood stability). The remaining cell pellets were resuspended in 200 µL of SDS 2%, and the total protein amount of each sample was quantified with the BCA assay. Cell uptake of PAPTPL-I-DA7R was expressed as nmoles of PAPTPL-I-DA7R/total protein.

[1] = Blood stability: hydrolysis of PAPTPL-peptide derivatives in mouse blood; type: in vitro ADME; settings: heparinized mouse whole blood, 5 µM from 5 mM DMSO stock, 37 °C, 4 h, UHPLC/UV 312 nm, mean of n = 3
Method: Procedures involving animals were approved by the University of Padova Ethical Committee for Animal Welfare (OPBA) and by the Italian Ministry of Health (Permit Number 846/2021-PR), and conducted with the supervision of the Central Veterinary Service of the University of Padova, in compliance with Italian Law DL 26/2014, embodying UE Directive 2010/63/EU. Mice were anesthetized and blood was withdrawn from the jugular vein and heparinized. Blood samples (1 mL) were spiked with compound (5 µM; dilution from a 5 mM stock solution in DMSO) and incubated at 37 °C for 4 h (the maximum period allowed by blood stability). Aliquots (100 µL) were taken after 10 min, 30 min, 1 h, 2 h, and 4 h, kept on ice, and treated as follows: blood was mixed with 5 volumes of 0.1%TFA in CH3CN, mixed and sonicated for 2 min, and finally centrifuged for 7 min at 12,000× g; the supernatant was collected and analyzed by UHPLC. Quantitative analyses were carried out by UHPLC (1290 Infinity LC System, Agilent Technologies, Milan, Italy) using a reversed-phase column (Zorbax RRHT Extend C18, 1.8 µm, 50 × 3.0 mm, Agilent Technologies) and a UV diode array detector (190–500 nm), at a flow rate of 0.6 mL/min. Solvents A and B were 0.1% TFA in water and CH3CN, respectively. The gradient for B was as follows: 10% for 1 min, then from 10 to 100% in 8.0 min, 100% for 0.5 min, then from 100% to 10% in 1.5 min. The injection volume was 5 µL. The eluate was preferentially monitored at 312 nm (corresponding to an absorbance maximum of psoralenic compounds). The temperature of the column was kept at 25 °C. Concentration of PAPTPL or its derivatives was determined using the following calibration curve, which correlates peak area at 312 nm (y) with compound concentration in the sample (x): y = 6.3321x. The stability in blood was expressed as % of PAPTPL released relative to the amount of the derivative initially spiked in the sample.

erythrocytes = test: Hemolysis assay; type: cell-based; settings: 5 × 10^7 erythrocytes in 1 mL PBS pH 7.4; 1, 0.5, 0.25 or 0.125 nmoles/10^7 cells; 15 min; Abs 540 nm; relative to Triton X-100 1%; n = 3
Method: Hemolysis studies were conducted as described in [48]. Briefly, freshly withdrawn blood samples were centrifuged at 2000× g for 10 min to obtain erythrocytes; the pellet was then washed three times with sterile PBS (pH 7.4). Erythrocytes (5 × 10^7 cells in 1 mL of PBS for each experimental condition) were incubated with the tested compounds at the concentrations of 1, 0.5, 0.25, or 0.125 nmoles/10^7 cells for 15 min. The samples were then centrifuged and the absorbance (Abs) of the supernatant was measured at 540 nm. Triton X-100 1% and PBS were used as positive and negative control, respectively. The percentage of hemolysis was calculated with the following equation:% hemolysis = [(Abssample − AbsPBS)/(AbsTriton X-100 − AbsPBS)] × 100

VEGFR2 = settings: surface plasmon resonance; cited from earlier work
Excerpt: (§1) A7R peptide binds to both neuropilin-1 (NRP-1) and vascular endothelial growth factor receptor-2 (VEGFR2/KDR), disrupting their receptor/coreceptor interaction, and impacting, therefore, on angiogenesis and tumor growth. […] Binding of A7R to NRP-1, on the other hand, mainly involves interactions of Arg with the ...

NRP-1 = settings: surface plasmon resonance; cited from earlier work
Excerpt: as §1

## CC[C@H](C)[C@H](NC(=O)Oc1ccc(CCCOc2ccc([P+](CCCc3ccc(OCCCCOc4c5ccoc5cc5oc(=O)ccc45)cc3)(c3ccccc3)c3ccccc3)cc2)cc1)C(=O)N[C@H](CCCNC(=N)N)C(=O)N1CCC[C@@H]1C(=O)N1CCC[C@@H]1C(=O)N[C@H](CC(C)C)C(=O)N[C@H](Cc1c[nH]c2ccccc12)C(=O)N[C@@H](C(=O)N[C@H](C)C(=O)O)[C@H](C)O [PAPTPL-I-DA7R] (HELM PEPTIDE1{[O=C(Oc1ccc(CCCOc2ccc([P+](CCCc3ccc(OCCCCOc4c5ccoc5cc5oc(=O)ccc45)cc3)(c3ccccc3)c3ccccc3)cc2)cc1)[*:2]].I.[dR].[dP].[dP].[dL].[dW].[dT].[dA]}$$$$V2.0)
HPAFII cells
  Uptake by HPAFII cells relative to cultured Pan02 cells: roughly twice as much
[1]
  % of conjugate hydrolyzed (PAPTPL released relative to derivative initially spiked): about 30%
erythrocytes
  Hemolysis: did not induce any hemolysis

## CC(C)C[C@@H](NC(=O)[C@H]1CCCN1C(=O)[C@H]1CCCN1C(=O)[C@@H](CCCNC(=N)N)NC(=O)CCCc1cn(CCOCCOCCOCCOCCNC(=O)Oc2ccc(CCCOc3ccc([P+](CCCc4ccc(OCCCCOc5c6ccoc6cc6oc(=O)ccc56)cc4)(c4ccccc4)c4ccccc4)cc3)cc2)nn1)C(=O)N[C@H](Cc1c[nH]c2ccccc12)C(=O)N[C@@H](C(=O)N[C@H](C)C(=O)O)[C@H](C)O [PAPTPL-Teg-DA7R]
[1]
  % of conjugate hydrolyzed (PAPTPL released relative to derivative initially spiked): about 50%
erythrocytes
  Hemolysis: increase in the ability of the derivative (PAPTPL-Teg-DA7R) to lyse erythrocytes

## CC(C)C[C@@H]1NC(=O)[C@H](Cc2c[nH]c3ccccc23)NC(=O)[C@H]([C@@H](C)O)NC(=O)[C@H](C)NC(=O)[C@H](Cc2cn(CCOCCOCCOCCOCCNC(=O)Oc3ccc(CCCOc4ccc([P+](CCCc5ccc(OCCCCOc6c7ccoc7cc7oc(=O)ccc67)cc5)(c5ccccc5)c5ccccc5)cc4)cc3)nn2)NC(=O)[C@H](CCCNC(=N)N)NC(=O)[C@@H]2CCCN2C(=O)[C@@H]2CCCN2C1=O [PAPTPL-Teg-cA7R]
[1]
  % of conjugate hydrolyzed (PAPTPL released relative to derivative initially spiked): about 50%
erythrocytes
  Hemolysis: dramatic increase in the hemolysis

## C#CC[C@@H]1NC(=O)[C@H](CCCNC(=N)N)NC(=O)[C@@H]2CCCN2C(=O)[C@@H]2CCCN2C(=O)[C@H](CC(C)C)NC(=O)[C@H](Cc2c[nH]c3ccccc23)NC(=O)[C@H]([C@@H](C)O)NC(=O)[C@H](C)NC1=O [cA7R] (HELM PEPTIDE1{A.T.W.L.P.P.R.[C#CC[C@H](N[*:1])C(=O)[*:2]]}$PEPTIDE1,PEPTIDE1,1:R1-8:R2$$$V2.0)
VEGFR2
  Affinity for VEGFR2: retain affinity
NRP-1
  Affinity for NRP-1: retain affinity
erythrocytes
  Hemolysis: completely ineffective towards erythrocytes

Reference: article PMC10221132, “DA7R: A 7-Letter Zip Code to Target PDAC” (Pharmaceutics, 2023)
